“And” between values parts separate entries of the source, which are not always exact repeats. Equal entries are not always repeated. Numbered stars: 1 amine (or outer) side, 2 acyl side, 3 side chain; on linkers, the order of the positions; unused ones are H or OH. Bridge positions count the residues as written; N and C are the ends. Square brackets hold non-standard residues; d marks the D form. Side chains are listed from the residue outwards. Ends that are not written are not given here. * marks the point of attachment. γGlu = O=C(O)[C@H](CCC(=O)[*:2])N[*:1]; Palmitoyl = CCCCCCCCCCCCCCCC(=O)*; DMIA = not defined here; Aib = CC(C)(N)C(=O)O
B1: Chi-2, d-Ser2, Lys10 γE-C16 (SEQ ID NO: 643) (peptide)
peptide: H[dS]QGTFTSDK([γGlu-Palmitoyl])SKYLDEQAAKEFIAWLMNT
B2: DMIA1, E16/K20 lactam, Lys29 γE-C16 (SEQ ID NO: 653) (peptide)
peptide: XSQGTFTSDYSKYLDERRAKDFVQWLMNK
modifications: DMIA at position 1; E16/K20 lactam; C16 fatty acyl on Lys29 via γ-Glu spacer
B3: Chi-2, d-Ser2, Lys10 γE-γE-C16 (SEQ ID NO: 644) (peptide)
peptide: H[dS]QGTFTSDK([γGlu-γGlu-Palmitoyl])SKYLDEQAAKEFIAWLMNT
B4: Chi-2, AIB2, E3, Lys10 γE-γE-C16 (SEQ ID NO: 648) (peptide)
peptide: H[Aib]EGTFTSDK([γGlu-γGlu-Palmitoyl])SKYLDEQAAKEFIAWLMNT
B5: DMIA1, E16/K20 lactam, Lys10 γE-C16 (SEQ ID NO: 651) (peptide)
peptide: [DMIA]SQGTFTSDK([γGlu-Palmitoyl])SKYLDERRAKDFVQWLMNT
modifications: lactam 16-20; reading uncertain
B6: Chi-2, AIB2, I7, Lys10 γE-C16 (SEQ ID NO: 649) (peptide)
peptide: H[Aib]QGTFISDK([γGlu-Palmitoyl])SKYLDEQAAKEFIAWLMNT-NH2
modifications: N-terminus assumed
SMILES: CCCCCCCCCCCCCCCC(=O)N[C@@H](CCC(=O)NCCCC[C@H](NC(=O)[C@H](CC(=O)O)NC(=O)[C@H](CO)NC(=O)[C@@H](NC(=O)[C@H](Cc1ccccc1)NC(=O)[C@@H](NC(=O)CNC(=O)[C@H](CCC(N)=O)NC(=O)C(C)(C)NC(=O)[C@@H](N)Cc1c[nH]cn1)[C@@H](C)O)[C@@H](C)CC)C(=O)N[C@@H](CO)C(=O)N[C@@H](CCCCN)C(=O)N[C@@H](Cc1ccc(O)cc1)C(=O)N[C@@H](CC(C)C)C(=O)N[C@@H](CC(=O)O)C(=O)N[C@@H](CCC(=O)O)C(=O)N[C@@H](CCC(N)=O)C(=O)N[C@@H](C)C(=O)N[C@@H](C)C(=O)N[C@@H](CCCCN)C(=O)N[C@@H](CCC(=O)O)C(=O)N[C@@H](Cc1ccccc1)C(=O)N[C@H](C(=O)N[C@@H](C)C(=O)N[C@@H](Cc1c[nH]c2ccccc12)C(=O)N[C@@H](CC(C)C)C(=O)N[C@@H](CCSC)C(=O)N[C@@H](CC(N)=O)C(=O)N[C@H](C(N)=O)[C@@H](C)O)[C@@H](C)CC)C(=O)O
B7: Chi-2, AIB2, Lys10 γE-C16 (SEQ ID NO: 645) (peptide)
peptide: H[Aib]QGTFTSDK([γGlu-Palmitoyl])SKYLDEQAAKEFIAWLMNT-NH2
modifications: N-terminus assumed
SMILES: CCCCCCCCCCCCCCCC(=O)N[C@@H](CCC(=O)NCCCC[C@H](NC(=O)[C@H](CC(=O)O)NC(=O)[C@H](CO)NC(=O)[C@@H](NC(=O)[C@H](Cc1ccccc1)NC(=O)[C@@H](NC(=O)CNC(=O)[C@H](CCC(N)=O)NC(=O)C(C)(C)NC(=O)[C@@H](N)Cc1c[nH]cn1)[C@@H](C)O)[C@@H](C)O)C(=O)N[C@@H](CO)C(=O)N[C@@H](CCCCN)C(=O)N[C@@H](Cc1ccc(O)cc1)C(=O)N[C@@H](CC(C)C)C(=O)N[C@@H](CC(=O)O)C(=O)N[C@@H](CCC(=O)O)C(=O)N[C@@H](CCC(N)=O)C(=O)N[C@@H](C)C(=O)N[C@@H](C)C(=O)N[C@@H](CCCCN)C(=O)N[C@@H](CCC(=O)O)C(=O)N[C@@H](Cc1ccccc1)C(=O)N[C@H](C(=O)N[C@@H](C)C(=O)N[C@@H](Cc1c[nH]c2ccccc12)C(=O)N[C@@H](CC(C)C)C(=O)N[C@@H](CCSC)C(=O)N[C@@H](CC(N)=O)C(=O)N[C@H](C(N)=O)[C@@H](C)O)[C@@H](C)CC)C(=O)O
B8: Chi-2, AIB2, Lys10 γE-γE-C16 (SEQ ID NO: 646) (peptide)
peptide: H[Aib]QGTFTSDK([γGlu-γGlu-Palmitoyl])SKYLDEQAAKEFIAWLMNT-NH2
modifications: N-terminus assumed
SMILES: CCCCCCCCCCCCCCCC(=O)N[C@@H](CCC(=O)N[C@@H](CCC(=O)NCCCC[C@H](NC(=O)[C@H](CC(=O)O)NC(=O)[C@H](CO)NC(=O)[C@@H](NC(=O)[C@H](Cc1ccccc1)NC(=O)[C@@H](NC(=O)CNC(=O)[C@H](CCC(N)=O)NC(=O)C(C)(C)NC(=O)[C@@H](N)Cc1c[nH]cn1)[C@@H](C)O)[C@@H](C)O)C(=O)N[C@@H](CO)C(=O)N[C@@H](CCCCN)C(=O)N[C@@H](Cc1ccc(O)cc1)C(=O)N[C@@H](CC(C)C)C(=O)N[C@@H](CC(=O)O)C(=O)N[C@@H](CCC(=O)O)C(=O)N[C@@H](CCC(N)=O)C(=O)N[C@@H](C)C(=O)N[C@@H](C)C(=O)N[C@@H](CCCCN)C(=O)N[C@@H](CCC(=O)O)C(=O)N[C@@H](Cc1ccccc1)C(=O)N[C@H](C(=O)N[C@@H](C)C(=O)N[C@@H](Cc1c[nH]c2ccccc12)C(=O)N[C@@H](CC(C)C)C(=O)N[C@@H](CCSC)C(=O)N[C@@H](CC(N)=O)C(=O)N[C@H](C(N)=O)[C@@H](C)O)[C@@H](C)CC)C(=O)O)C(=O)O
B9: Peptide 82 (Table 22, SEQ ID NO: 564) (peptide)
peptide: H[Aib]QGTFTSDK([Ala-Ala-Palmitoyl])SKYLD[Aib]RRAQDFVQWLMNT-NH2
B10: DMIA1, E16/K20 lactam, Lys10 γE-γE-C16 (SEQ ID NO: 652) (peptide)
peptide: [DMIA]SQGTFTSDK([γGlu-γGlu-Palmitoyl])SKYLDERRAKDFVQWLMNT
modifications: lactam 16-20; reading uncertain
B11: AIB2, AIB16, A18, D28, Lys10 γE-C16 (SEQ ID NO: 656) (peptide)
peptide: H[Aib]QGTFTSDK([γGlu-Palmitoyl])SKYLD[Aib]RAAQDFVQWLMDT-NH2
B12: AIB2, AIB16, A18, D28, Lys10 γE-γE-C16 (SEQ ID NO: 655) (peptide)
peptide: H[Aib]QGTFTSDK([γGlu-γGlu-Palmitoyl])SKYLD[Aib]RAAQDFVQWLMDT-NH2
modifications: N-terminus assumed
SMILES: CCCCCCCCCCCCCCCC(=O)N[C@@H](CCC(=O)N[C@@H](CCC(=O)NCCCC[C@H](NC(=O)[C@H](CC(=O)O)NC(=O)[C@H](CO)NC(=O)[C@@H](NC(=O)[C@H](Cc1ccccc1)NC(=O)[C@@H](NC(=O)CNC(=O)[C@H](CCC(N)=O)NC(=O)C(C)(C)NC(=O)[C@@H](N)Cc1c[nH]cn1)[C@@H](C)O)[C@@H](C)O)C(=O)N[C@@H](CO)C(=O)N[C@@H](CCCCN)C(=O)N[C@@H](Cc1ccc(O)cc1)C(=O)N[C@@H](CC(C)C)C(=O)N[C@@H](CC(=O)O)C(=O)NC(C)(C)C(=O)N[C@@H](CCCNC(=N)N)C(=O)N[C@@H](C)C(=O)N[C@@H](C)C(=O)N[C@@H](CCC(N)=O)C(=O)N[C@@H](CC(=O)O)C(=O)N[C@@H](Cc1ccccc1)C(=O)N[C@H](C(=O)N[C@@H](CCC(N)=O)C(=O)N[C@@H](Cc1c[nH]c2ccccc12)C(=O)N[C@@H](CC(C)C)C(=O)N[C@@H](CCSC)C(=O)N[C@@H](CC(=O)O)C(=O)N[C@H](C(N)=O)[C@@H](C)O)C(C)C)C(=O)O)C(=O)O
B13: DMIA1, E16/K20 lactam, Lys29 γE-γE-C16 (SEQ ID NO: 654) (peptide)
peptide: XSQGTFTSDYSKYLDERRAKDFVQWLMNK
modifications: DMIA at position 1; E16/K20 lactam; C16 fatty acyl on Lys29 via γ-Glu-γ-Glu spacer
B14: Peptide 83 (Table 22, SEQ ID NO: 565) (peptide)
peptide: H[Aib]QGTFTSDK([γGlu-γGlu-Palmitoyl])SKYLD[Aib]RRAQDFVQWLMNT-NH2
B15: Chi-2, AIB2, I7, Lys10 γE-γE-C16 (SEQ ID NO: 650) (peptide)
peptide: H[Aib]QGTFISDK([γGlu-γGlu-Palmitoyl])SKYLDEQAAKEFIAWLMNT-NH2
modifications: N-terminus assumed
SMILES: CCCCCCCCCCCCCCCC(=O)N[C@@H](CCC(=O)N[C@@H](CCC(=O)NCCCC[C@H](NC(=O)[C@H](CC(=O)O)NC(=O)[C@H](CO)NC(=O)[C@@H](NC(=O)[C@H](Cc1ccccc1)NC(=O)[C@@H](NC(=O)CNC(=O)[C@H](CCC(N)=O)NC(=O)C(C)(C)NC(=O)[C@@H](N)Cc1c[nH]cn1)[C@@H](C)O)[C@@H](C)CC)C(=O)N[C@@H](CO)C(=O)N[C@@H](CCCCN)C(=O)N[C@@H](Cc1ccc(O)cc1)C(=O)N[C@@H](CC(C)C)C(=O)N[C@@H](CC(=O)O)C(=O)N[C@@H](CCC(=O)O)C(=O)N[C@@H](CCC(N)=O)C(=O)N[C@@H](C)C(=O)N[C@@H](C)C(=O)N[C@@H](CCCCN)C(=O)N[C@@H](CCC(=O)O)C(=O)N[C@@H](Cc1ccccc1)C(=O)N[C@H](C(=O)N[C@@H](C)C(=O)N[C@@H](Cc1c[nH]c2ccccc12)C(=O)N[C@@H](CC(C)C)C(=O)N[C@@H](CCSC)C(=O)N[C@@H](CC(N)=O)C(=O)N[C@H](C(N)=O)[C@@H](C)O)[C@@H](C)CC)C(=O)O)C(=O)O
B16: Chi-2, AIB2, E3, Lys10-C16, no spacer (SEQ ID NO: 647) (peptide)
peptide: H[Aib]EGTFTSDK(Palmitoyl)SKYLDEQAAKEFIAWLMNT-NH2
modifications: N-terminus assumed
SMILES: CCCCCCCCCCCCCCCC(=O)NCCCC[C@H](NC(=O)[C@H](CC(=O)O)NC(=O)[C@H](CO)NC(=O)[C@@H](NC(=O)[C@H](Cc1ccccc1)NC(=O)[C@@H](NC(=O)CNC(=O)[C@H](CCC(=O)O)NC(=O)C(C)(C)NC(=O)[C@@H](N)Cc1c[nH]cn1)[C@@H](C)O)[C@@H](C)O)C(=O)N[C@@H](CO)C(=O)N[C@@H](CCCCN)C(=O)N[C@@H](Cc1ccc(O)cc1)C(=O)N[C@@H](CC(C)C)C(=O)N[C@@H](CC(=O)O)C(=O)N[C@@H](CCC(=O)O)C(=O)N[C@@H](CCC(N)=O)C(=O)N[C@@H](C)C(=O)N[C@@H](C)C(=O)N[C@@H](CCCCN)C(=O)N[C@@H](CCC(=O)O)C(=O)N[C@@H](Cc1ccccc1)C(=O)N[C@H](C(=O)N[C@@H](C)C(=O)N[C@@H](Cc1c[nH]c2ccccc12)C(=O)N[C@@H](CC(C)C)C(=O)N[C@@H](CCSC)C(=O)N[C@@H](CC(N)=O)C(=O)N[C@H](C(N)=O)[C@@H](C)O)[C@@H](C)CC

Legend:
Test in all cases: cell-based or functional assay
[1] = biological target: T1, GLP-1 receptor (UniProt P43220 24-463, limits assumed)
[2] = biological target: glucagon receptor (UniProt P47871 26-477, limits assumed)
[3] = biological target: T1, GLP-1 receptor; remark: listed apart in the source

Chain of glucagon receptor (P47871 26-477 limits assumed): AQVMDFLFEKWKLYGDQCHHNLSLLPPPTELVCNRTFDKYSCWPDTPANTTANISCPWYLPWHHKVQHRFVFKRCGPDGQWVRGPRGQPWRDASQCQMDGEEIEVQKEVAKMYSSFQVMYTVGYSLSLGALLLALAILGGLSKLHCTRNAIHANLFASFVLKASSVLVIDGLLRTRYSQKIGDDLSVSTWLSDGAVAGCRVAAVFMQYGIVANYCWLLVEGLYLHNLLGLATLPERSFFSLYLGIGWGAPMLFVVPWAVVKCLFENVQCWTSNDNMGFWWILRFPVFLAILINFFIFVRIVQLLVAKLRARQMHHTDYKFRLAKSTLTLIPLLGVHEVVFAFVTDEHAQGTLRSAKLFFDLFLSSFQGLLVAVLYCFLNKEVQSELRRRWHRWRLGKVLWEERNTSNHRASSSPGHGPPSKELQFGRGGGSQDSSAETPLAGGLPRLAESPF

Binder	in vitro activity EC50 [1]	in vitro activity EC50 [2]	cAMP EC50 [3]
B1	1.4 pM	11 pM	–
B2	75 pM	107 pM	–
B3	3 pM	8 pM	–
B4	4 pM	2920 pM	–
B5	6 pM	19 pM	–
B6	24 pM and 44 pM	14 pM	–
B7	1.4 pM	25 pM	–
B8	1.8 pM	14 pM	–
B9	–	–	108 pM
B10	4 pM	–	–
B11	4 pM	6 pM	–
B12	4 pM	3 pM	–
B13	70 pM	25 pM	–
B14	–	–	43 pM
B15	10 pM	7 pM	–
B16	5 pM	46100 pM	–
